{"source": "patent US12371675B2", "about": "“Process and microorganism for synthesis of adipic acid from carboxylic acids” (THE GOVERNING COUNCIL OF THE UNIVERSITY OF TORONTO, priority 2015, dated 2025)"}
{"experiment": "AR reductase activity, NAD(P)H oxidation at 340 nm", "format": "biochemical", "conditions": "10 mM, 1.8% DMSO; ND = no activity was detected", "experimental": "(§1) Enzyme activity of purified ARs was measured spectrophotometrically in 96-well plates Reaction mixtures contained 100 mM HEPES buffer (pH 7.5), 0.4 mM NADH/NADPH, 10 mM adipaldehyde or butylaldehyde, and proteins (10 μg for adipaldehyde screen, 2 μg for butyraldehyde screen) in a final volume of 200 μL Reaction mixture for adipaldehyde screening contained 1.8% DMSO. Enzyme reactions were monitored by following the decrease in absorbance at 340 nm (ε340 nm=6,220/M·cm) due to oxidation of NAD(P)H to NAD(P)+.", "units": {"Activity [U/mg protein] Adipaldehyde": "U/mg protein"}}
{"molecule": "SCO0229: aldehyde reductase (AR) from Streptomyces coelicolor (protein) MQRQNWLITGVSTGLGRAFAQAALSAGHTVVGTVRSENDVRAFEELGPGHAHGRILDVTDGGAVNGVVAEVERSVGPLDVVVANAGYGLEGTFEETPLAEVRRQFDVNVFGAMATLQAALPHMRARRRGHLMAVTSMGGLMAVPGMSAYCGSKFALEGILEALGKEVAQFGIHVTAIEPGSFRTDWAGRSMTRAARTVADYDDLFAPIREARQKASGNQLGNPAKAGEAVVHITSVDQPPAHLVLGSDALRLVTAARTAVDEDIRAWEALSRTTDFPQGAQL", "Activity [U/mg protein] Adipaldehyde": "0.362 ± 0.05"}
{"experiment": "AR reductase activity, NAD(P)H oxidation at 340 nm", "format": "biochemical", "conditions": "10 mM; ND = no activity was detected", "experimental": "as §1", "units": {"Activity [U/mg protein] Butyraldehyde": "U/mg protein"}}
{"molecule": "SFyv_1886: aldehyde reductase (AR) from Shigella flexneri (protein) MHYQPKQDLLNDRIILVTGASDGIGREAAMTYARYGATVILLGRNEEKLRQVASHINEETGRQPQWFILDLLTCTSENCQQLAQRIVVNYPRLDGVLHNAGLLGDVCPMSEQNPQVWQDVMQINVNATFMLTQALLPLLLKSDAGSLVFTSSSVGRQGRANWGAYAASKFATEGMMQVLADEYQQRLRVNCINPGGTRTAMRASAFPTEDPQKLKTPADIMPLYLWLMGDDSRRKTGMTFDAQPGRKPGISQ", "Activity [U/mg protein] Butyraldehyde": "0.124 ± 0.042"}
{"molecule": "Atu2528: aldehyde reductase (AR) from Agrobacterium fabrum (protein) MQPFVYMAAPARIVFSAGSSADVAEEIRRLGLSRALVLSTPQQKGDAEALASRLGRLAAGVFSEAAMHTPVEVTKTAVEAYRAAGADCVVSLGGGSTTGLGKAIALRTDAAQIVIPTTYAGSEVTPILGQTENGVKTTMRGPEILPEVVIYDAELTLGLPVAISMTSGLNAMAHAAEALYARDRNPIASMMAVEGLRAMIEALPVVRQAPHDIGARETALYGAWLCGTVLGAVGMSLHHKLCHTLGGSLDLPHAETHAVLLPHTIAYVEEAAPNLLAPLAALVGGRAGAGLFDFAARLGAPSSLAALGVGADDLDPMAELATANPYWCPRPIEKTAIRDLLQRAFEGARPA", "Activity [U/mg protein] Butyraldehyde": "0.110 ± 0.089"}
{"molecule": "RPA0021: aldehyde reductase (AR) from Rhodopseudomonas palustris (protein) MTPRNATVAVIGAGDYIGAEIAKKFAAEGFTVFAGRRNGEKLAPLVAEIEAAGGRIVARSLDARNEDEVTAFLNAADAHAPLEVTIFNVGANVNFPILETTDRVFRKVWEMACWAGFVSGRESARLMLAHGQGKIFFTGATASLRGGSGFAAFASAKFGLRAVAQSMARELMPKNIHVAHLIIDSGVDTAWVRERREQMFGKDALANPDLLMPPAAVAGAYWQLYQQPKSAWTFEMEIRPYGEKW", "Activity [U/mg protein] Butyraldehyde": "0.116 ± 0.031"}
{"molecule": "RHA1_ro08443: aldehyde reductase (AR) from Rhodococcus jostii (protein) MPEIVKFEMPRVETVVQGVGAVREIGAELDRRDLKRVFLVTGHSVGSSEAFAALASDLGDRVVGIFDQVKAHNPVELIVELITAAKSAQAEAFVAVGGGSPVDAAKLAAIGLCEGSESVEDLARNYLVFEYPNTIHQKPLTGTPMPVFAVPTTLSAAEWDGFAGSVDHTRDTKDLTVYLEATPQVVFLDPEFCAHTPRDLWATTGVRALDHAVETAYAKNAHPFTTALANGALTMLAENLPRSVKDPHDYDAALKCLEAAWMSIIGVHNVSLGLSHAIGHQLGAVGIPHGVTSCIMLPHVMRFLEPVTSAEQARMAQSLAQVQGDGEDLPAADRLERILDELGVPRRVSEFGVGRDKMDGVARATLGDIVVRESPRPVDETVVYGLLETVW", "Activity [U/mg protein] Butyraldehyde": "0.188 ± 0.142"}
{"molecule": "TM_0111: aldehyde reductase (AR) from Thermotoga maritima (protein) MFKISFYLPTEIIFRVGAVDELEERAKKLGKKALIVTGRSSTKKTGLLQRVVDLLKKAGVESFVFDKIVPNPISDHVDEAAEIVRKEKIDFIIGLGGGSPIDSAKAISITAPNEGKFWDYVPVGGGKIPEKSIPVVAIPTTHGTGTEADPFAVITNPQTKEKVGIGYRNTFPVLSLVDPEVMKTLPKDQTAYTSMDAFYHAIEAFLNVNANPYSDVLALDAMKRIVTYLPVAYENGEDMEARTNLAWASTEAGITETLTGVIANHALEHGLSGFYPEITHGLGLCITGPYLFEYIFDHAYERLAIVGREVFGVYETDDRKAGRLAIKKLRDFQEMFGLNKRLSELGVKKEDIPKMAETGYRILNGVVVVTPGNLTAKDMEEIFNRCY", "Activity [U/mg protein] Butyraldehyde": "1.055 ± 0.43"}
{"molecule": "SCO0229: aldehyde reductase (AR) from Streptomyces coelicolor (protein) MQRQNWLITGVSTGLGRAFAQAALSAGHTVVGTVRSENDVRAFEELGPGHAHGRILDVTDGGAVNGVVAEVERSVGPLDVVVANAGYGLEGTFEETPLAEVRRQFDVNVFGAMATLQAALPHMRARRRGHLMAVTSMGGLMAVPGMSAYCGSKFALEGILEALGKEVAQFGIHVTAIEPGSFRTDWAGRSMTRAARTVADYDDLFAPIREARQKASGNQLGNPAKAGEAVVHITSVDQPPAHLVLGSDALRLVTAARTAVDEDIRAWEALSRTTDFPQGAQL", "Activity [U/mg protein] Butyraldehyde": "0.892 ± 0.847"}
{"experiment": "AT activity coupled with alanine and glutamate dehydrogenases", "format": "biochemical", "conditions": "10 mM adipaldehyde, alanine and glutamate amino-donors; ND = no activity was detected", "units": {"Adipaldehyde 10 mM U/mg": "U/mg"}}
{"molecule": "SM2011_c04388: aminotransferase (AT) from Sinorhizobium meliloti (protein) MNAHNKPNAPVLDSYWMPFTANRQFKAAPRLLAAAEGMHYTSVDGRTVLDGTAGLWCVNAGHGRRQIAAAVERQLSTMDFAPSFQMGHPIAFDFAERLAEIAPGPAGAKLDRVFFTGSGSESVDTALKMALAYQRSIGQGTRTRLIGRERGYHGVGFGGISVGGIVNNRRVFPQLPGSDHLRHTHDPAKNAFVKGQPEHGAELADDLERLVALHGAETIAACIVEPVAGSTGVLIPPKGYLERLRAICDKHGILLIFDEVITGFGRLGAAFATDYFGVTPDIVTTAKGLTNGAIPMGAVFASRKVHDALMHGPEGQIELFHGYTYSGHPAACAAGIATLDIYRDEGLMTRAAEIEGDWHEAMHSMKGLPHVIDIRTIGLIAGIELQSRDGAPGARAYDVFVDCFERGLLIRVTGDIIAFSPPLIAEKQHFGEIVSILADALKRVK", "Adipaldehyde 10 mM U/mg": "0.152 ± 0.001"}
{"molecule": "SCO5676: aminotransferase (AT) from Streptomyces coelicolor (protein) MTALPQERRVVTAIPGPKSQELQARRTAVVAQGVGSTLPVFVARAGGGVIEDVDGNRLIDFGSGIAVTSVGASAEAVVRKASAQLADFTHTCFMVTPYEGYVAVAEALAELTPGDHAKKSALFNSGAEAVENAVKIARAYTKRQAVVVFDHGYHGRTNLTMALTAKNMPYKHGFGPFAPEVYRVPVAYGYRWPTGAENAGPEAAAQAIDQISKQVGAENVAAVIIEPVLGEGGFIEPAKGFLPAIREFASDNGIVFVADEIQSGFCRTGQWFACEDEGIVPDLITTAKGIAGGLPLSAVTGRAEIMDAAHSGGLGGTYGGNPVACAGALGAIETMKELDLNARAKDIEAVMKSRLAAMAEKFDVIGDVRGRGAMIAIELVKDRETKEPNPAATAALAKACHQEGLLVLTCGTYGNVLRFLPPLVIGEDLLNEGLDIIEQAFTRV", "Adipaldehyde 10 mM U/mg": "0.084 ± 0.015"}
{"molecule": "PP4421: aminotransferase (AT) from Pseudomonas putida (protein) MDKQKQDLISQQDRGAVLHPFTQLKDFASGKAGDPTIIETAKGITITDATGREYIDGFAGLYCMNVGYGRTEVAEAISKQAHKLAYYHTYAAHTTEELARLSDRLVKMAPGKMSKVFYGMSGSDANETQAKLVWYYNNLRGKPNKKKIIARERGYHGCSVVSGSMTGMSFYHDHMDLPIAGILRTGAPHYYWGAEPGETELEFSARRARELEELILREGPDTIGAFIAEPVLGTGGITPPPEGYWAAVQPVLKKYDILLIADEVITGFGRTGAMFGCDKYGIEPDLITVAKGLTSAYAPLSASIVGEKVYKVMEEGADRVGAFSHGYTYSGHPIGVAAANAVLDIVEGENIPAHVDKVGQYFQKSMQETFSSLPIVGEVRGVGMMAAIEFVADPATKKRFDPALKVGARISKAARDRNLIARAMPHGEILGFAPPLVTTEQEVDRIISIAHEAVLSVLDELKV", "Adipaldehyde 10 mM U/mg": "0.061 ± 0.001"}
{"molecule": "SAV2583: aminotransferase (AT) from Streptomyces avermitilis (protein) MSALPQERRVVTAIPGPKSQELQARRTAVVAAGVGSVLPVFTTRAGGGIIEDVDGNRLIDFGSGIAVTSVGASAEAVVRRASAQLQDFTHTCFMVTPYEGYVAVAEALAELTPGDHAKKSALFNSGAEAVENAVKIARAYTKRQAVVVFDHGYHGRTNLTMALTAKNMPYKNGFGPFAPEVYRVPVAYGYRWLTGPENAGAEASAQAIDMINKQIGADNVAAIIIEPVLGEGGFIEPAKGFLPAISKFAKDNGIVFVADEIQSGFCRTGQWFACEDEGIVPDLITTAKGIAGGLPLAAVTGRAEIMDAAHAGGLGGTYGGNPVACAGALGAIETMKELDLNAKAKNIEAVMKARLGAMAEKFDIIGDVRGRGGMIAIELVKDRDTKEPNPEAAGALAKACHQEGLLVLTCGTYGNVLRFLPPLVIGEDLLNEGLDIIEQAFSRI", "Adipaldehyde 10 mM U/mg": "0.136 ± 0.011"}
{"molecule": "SM2011_b20379: aminotransferase (AT) from Sinorhizobium meliloti (protein) MNDRPNSLHALDKQSLVHPYTNLAVHQETGPHVITGGDGIYVVDDEGKRYIEGLAGLFCAGLGFSEQRLVEAATRQLKTMPFYHSFAHKSTEPGIRLAEKLLSIAPVPMSKVFFAGSGSEANDTAIKLIWYYNNALGRPEKKKIISRRKAYHGVTVATASLTGLPFNHRDFDLPIANILHTDCPHYWRFAETGETEEDFATRMANNLEAIILEEGPETIAAFFAEPVMVSGGVITPPKTYFEKVQAVLRKYDILLIADEVICGFGRTGNMFGSETYGLKPDMISCAKQLSAAYMPISALMINAKIADALVDQSRKIGTFSHGFTYGGHPVAAAVALEALTIYEEIDIVGHVRSVAPAFQDRVRKLGEHPLIGEARGVGLVAGLEFVKDKATRENFPPAWQVANQAGKFATARGVLTRGLGDMVSLCPAMIIDDEQIDDLMTRMGLALDDTLAWARAQGHVG", "Adipaldehyde 10 mM U/mg": "0.106 ± 0.008"}
{"molecule": "SM2011_c01534: aminotransferase (AT) from Sinorhizobium meliloti (protein) MSNRLNTTPNDLSAFWMPFTANRQFKKEPRLFVGAKDMYYTTHDGRTVLDGTAGLWCVNAGHCRPKITEAIREQAGELDYAPAFQLGHPKAFELANRLVDIAPEGMNHVLYTNSGSESVDTALKVALAYHRAKGNGSRFRLIGRERGYHGVNFGGISVGGIVANRKMFGTLLTGVDHLPHTHLPAKNAFSRGEPEHGADLAAELERIVTLHDASTVAAVIVEPVAGSTGVLIPPKGYLQKLREICTKHGILLIFDEVITGYGRLGTPFAAQYFDVKPDIITTAKGLTNGVIPMGAVFVTSEIHDAFMTGPEHLIEFFHGYTYSGNPIASAAALGTLDTYREEGLLTRAAELAPYWEEALHSLKDCPHVIDIRNIGLIGAVELEPIAGEPTKRAFSAFLKAYEKGLLIRTTGDIIALSPPLIIEKRQIDELFDKLRDVLKNNI", "Adipaldehyde 10 mM U/mg": "0.021 ± 0.003"}
